For 1 substance, stoichiometry N results are on record in paper PMC10041110.

The assay deals with Chikungunya virus nonstructural protein 1 (nsP1) capping pore (Chikungunya virus). Briefly: cryo-EM structure.

Consider “Chikungunya virus nonstructural protein 1 (nsP1) capping pore (enzyme)”, for which the stoichiometry N (commonly a count of units in the complex or per binding partner) is 12.
